This is an account of results in publication PMC6885550.

Common to all, as to test: FRET or BRET
Background: In BRET a luciferase serves as donor, and the signal depends on an acceptor being close.

Test [1] has as its target YFP-sarcolipin (SLN) (UniProt O00631).
Test [2] has the same target. This is another data set of the same source.
Test [3] concerns the target YFP-DWORF (dwarf open reading frame) (UniProt P0DN84).
The target is the same in test [4]. The source holds these as a separate data set.

Read-outs that look alike come from different tables or passages of the source.

Chain of YFP-sarcolipin (SLN) (from UniProt O00631 1-31) (natural protein) (O00631 whole entry): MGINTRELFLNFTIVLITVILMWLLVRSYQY

As usually defined, the stoichiometry N is a count of units in the complex or per binding partner. Regarding “YFP-sarcolipin (SLN) (from UniProt O00631 1-31) (natural protein)”, the stoichiometry N with YFP-sarcolipin (SLN) [1] was 2; with YFP-sarcolipin (SLN) [2], greater than 2.
For “YFP-DWORF (dwarf open reading frame) (from UniProt P0DN84 1-35) (natural protein)”, the percent of donors in FRET (oligomer subpopulation) worked out at 23.4% in test [3] and 20% in test [4].
